Biological target: T1, FluPolB (influenza B/Memphis/13/2003 polymerase heterotrimer) (influenza B/Memphis/13/2003, UniProt Q5V8Z9;Q5V8Y6;Q5V8X3)
T1 construct: copies: + +
Assay: SEC
Details: both partners purified

B1: hANP32A LCAR alone (144-249) (domain or fragment)
chain: YLDGYDRDDKEAPDSDAEGYVEGLDDEEEDEDEEEYDEDAQVVEDEEDEDEEEEGEEEDVSGEEEEDEEGYNDGEVDDEEDEEELGEEERGQKRKREPEDEGEDDD
B1: binds.

Source: article PMC11333492 (Nature Communications, 2024)
